Results from PMC2946933.
“And” between values parts separate entries of the source, which are not always exact repeats. Identical values can stand only once.

How the values were obtained:
Conditions in all cases: EMSA: 50 mM Tris-HCl pH 7.5, 100 mM KCl, 10 mM MgCl2, room temperature, SPR: same buffer, 25 C, Tb footprinting: 50 mM Tris-HCl pH 8.0, 100 mM NaCl
[1] = molecular target: T1, Hfq wild type (Escherichia coli?) (UniProt P0A6X3); assay: EMSA
[2] = molecular target: T1, Hfq wild type; assay: Tb(III) footprinting
[3] = molecular target: T1, Hfq wild type; assay: SPR

T1 sequence (P0A6X3 whole entry): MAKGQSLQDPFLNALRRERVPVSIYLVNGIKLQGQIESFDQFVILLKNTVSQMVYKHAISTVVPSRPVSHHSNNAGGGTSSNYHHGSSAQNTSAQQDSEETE

## GCAGCGUUACAUUCCCAUCCACUGGGGAAAGACGCGGCGCUGAUUGGUGAAGUGGUGGAACGUAAAGGUGUUCGUCUUGCCGGUCUGUAUGGCGUGAAACGAACCCUCGAUUUACCACACGCCGAACCGCUUCCGCGUAUAUGCUAAUAAAAUUCUAAAUCUCCUAUAGUUAGUCAAUGACCUUUUGCACCGCUUUGCGGUGCUUUCCUGGAAGAACAAAAUGUCAUAUACACCGAUGAGUGAUCUCGGACAACAAGGGUUGUUCGACAUCACUCGGACAAAUAUUGGAUCCGCUCGG [fhlA220 mRNA]
[1]
  Kd: 0.015 µM

## GGCAGUUAGUCAAUGACCUUUUGCACCGCUUUGCGGUGCUUUCCUGGAAGAACAAAAUGUCAUAUACACCGAUGAGUGAUCUCGGACAACAAGGGUUGUUCGACAUCACUCGGACAACAAAUAUUGGAUCCAGCUCG [fhlA53 mRNA]
[1]
  Kd: 0.07 µM
[2]
  binding: binds
[3]
  Kd: 0.043 µM and 0.05 µM

## OxyS sRNA with fhlA220 mRNA
[1]
  Kd: 0.023 µM

## fhlA53 mRNA
[1]; 10 mM Mg2+
  Kd: 0.07 µM
[3]
  Kd: 0.043 µM and 0.05 µM and 0.005 µM

## fhlA220 mRNA
[1]; Hfq hexamer, 10 mM Mg2+
  Kd: 0.015 µM
